Assay results from patent publication US20180049457A1, “ENZYMATIC SYNTHESIS OF SOLUBLE GLUCAN FIBER” (E I DU PONT DE NEMOURS AND COMPANY, priority 2014, published 2018).

B1: GTF4336T4: T4 C-terminal truncation of GTF4336, SEQ ID NO: 130, strain SG1318 (protein)
chain: INGKQYYVNSDGSVRKNFVFEQDGKSYYFDAETGALATKSQDEFSTEPIKATVDFSSGNQLYKNDDKSLDQLDTFITADAWYRPKSILKDGKTWTASTEADKRPLLMVWWPDKSTQVNYLNYMQNQGLGAGSFSTNSSQESLDQAAKAVQTKIEERIAREGNTNWLRTSIDQFIKTQPGWNSSTENSSYDHLQGGQLLFNNSKGDTGNRTSHANSDYRLLNRTPTNQTGTRKYFKDNSIGGLEFLLANDIDNSNPAVQAEQLNWLHFMMNIGSIMANDPTANFDGLRVDALDNVDADLLQIASDYFKAAYGVDKSEANAIKHLSYLEAWSANDPYYNKDTKGAQLPIDNALRNALTNLLMRDKNTRMQLGDMTAFINSSLNPRGANDKNGERMANYIFTRAHDTEAQTIIQRIIRDRINPNLFGYNFTRDEIKKAFEIYNEDIDKAHKTYASYNLPSVYALMLTNKDSVTRVYYGDLYREDGHYMAKKTPYFDAIDTLLRARIKYVAGGQDMEVKKVGNDGLLTSVRYGKGANNRTDLGTSETRTQGMGVIMTNNYDFRLGSNETVTMNMGRAHRNQLYRPLLLTTKDGIATYFNDSDVPKNLLKRTDWNGNLTFNANDVFGVENVQVSGYLGVWVPVGAKANQDARTQPSNRANSDGQVYKSSAALDSQVMYEAFSNFQAFADDQPELYMNRVLAKNTDLLKAWGVTSVGLPPQYVSSKDGTFLDSTIDNGYAFDDRYDMALSQNNKYGSLEDLLNVLRALHKDGIQAIADWVPDQIYNLPGKEVVNATRVNGYGYHQQGYQIVDQAYVANTRTDGTDYQGKYGGAFLDELKAKYPSIFNRVQISNGKQLPTNEKITKWSAKYFNGTNILGRGINYVLRDDKTNQYFNTSANSQLLPTPLRDTGAITSTQVFQRRGQDVYFLRDNQAVKNEFVQDGNGNWYYFGADGKMTKGAQTINKKDYYFFDNGIQLRNALRRANNGYTYYYGLDGAMVKNAFVDFDDKRK
modifications: T4 C-terminal truncation of GTF4336
B2: GTF0974T5: T5 C-terminal truncation of GTF0974 glucosyltransferase, SEQ ID NO: 118, strain SG1317 (protein)
chain: INGKQYYVNSDGSVRKNFVFEQDGKSYYFDAETGALATKSQDEFSTEPIKATVDFSSGNQLYKNDDKSLDQLDTFITADAWYRPKSILKDGKTWTASTEADKRPLLMVWWPDKSTQVNYLNYMQNQGLGAGSFSTNSSQESLDQAAKAVQTKIEERIAREGNTNWLRTSIDQFIKTQPGWNSSTENSSYDHLQGGQLLFNNSKGDTGNRTSHANSDYRLLNRTPTNQTGTRKYFKDNSIGGLEFLLANDIDNSNPAVQAEQLNWLHFMMNIGSIMANDPTANFDGLRVDALDNVDADLLQIASDYFKAAYGVDKSEANAIKHLSYLEAWSANDPYYNKDTKGAQLPIDNALRNALTNLLMRDKNTRMQLGDMTAFINSSLNPRGANDKNGERMANYIFTRAHDTEAQTIIQRIIRDRINPNLFGYNFTRDEIKKAFEIYNEDIDKAHKTYASYNLPSVYALMLTNKDSVTRVYYGDLYREDGHYMAKKTPYFDAIDTLLRARIKYVAGGQDMEVKKVGNDGLLTSVRYGKGANNRTDLGTSETRTQGMGVIMTNNYDFRLGSNETVTMNMGRAHRNQLYRPLLLTTKDGIATYLNDSDVPKKLLKRTDWNGNLTFNANDVFGVENVQVSGYLGVWVPYGAKANQDARTQPSNRANSDGQVYKSSAALDSQVMYEAFSNFQAFADDQPELYMNRVLAKNTDLLKAWGITSVGLPPQYVSSKDGTFLDSTIDNGYAFDDRYDMALSQNNKYGSLEDLLNVLRALHKDGIQAIADWVPDQIYNLPGKEVVNATRVNGYGNHQVGYQIIDQAYVANTRTDGTDYQGKYGGAFLDELKAKYPSIFNRVQISNGKQLPTNEKITKWSAKYFNGTNILGRGINYVLRDDKTNQYFNTSANSQLLPTPLRDTGAITSTQVFQRRGQDVYFLRDNQAVKNEFVQDGNGNWYYFGGDGKMTKGAQNINNKDYYFFDNGIQLRNALRRASNGYTYYYGLDGAMVKNAFVDFDDKHKQ
modifications: T5 C-terminal truncation of GTF0974
B3: GTF4336T5: T5 C-terminal truncation of GTF4336, SEQ ID NO: 120, strain SG1319 (protein)
chain: INGKQYYVNSDGSVRKNFVFEQDGKSYYFDAETGALATKSQDEFSTEPIKATVDFSSGNQLYKNDDKSLDQLDTFITADAWYRPKSILKDGKTWTASTEADKRPLLMVWWPDKSTQVNYLNYMQNQGLGAGSFSTNSSQESLDQAAKAVQTKIEERIAREGNTNWLRTSIDQFIKTQPGWNSSTENSSYDHLQGGQLLFNNSKGDTGNRTSHANSDYRLLNRTPTNQTGTRKYFKDNSIGGLEFLLANDIDNSNPAVQAEQLNWLHFMMNIGSIMANDPTANFDGLRVDALDNVDADLLQIASDYFKAAYGVDKSEANAIKHLSYLEAWSANDPYYNKDTKGAQLPIDNALRNALTNLLMRDKNTRMQLGDMTAFINSSLNPRGANDKNGERMANYIFTRAHDTEAQTIIQRIIRDRINPNLFGYNFTRDEIKKAFEIYNEDIDKAHKTYASYNLPSVYALMLTNKDSVTRVYYGDLYREDGHYMAKKTPYFDAIDTLLRARIKYVAGGQDMEVKKVGNDGLLTSVRYGKGANNRTDLGTSETRTQGMGVIMTNNYDFRLGSNETVTMNMGRAHRNQLYRPLLLTTKDGIATYFNDSDVPKNLLKRTDWNGNLTFNANDVFGVENVQVSGYLGVWVPVGAKANQDARTQPSNRANSDGQVYKSSAALDSQVMYEAFSNFQAFADDQPELYMNRVLAKNTDLLKAWGVTSVGLPPQYVSSKDGTFLDSTIDNGYAFDDRYDMALSQNNKYGSLEDLLNVLRALHKDGIQAIADWVPDQIYNLPGKEVVNATRVNGYGYHQQGYQIVDQAYVANTRTDGTDYQGKYGGAFLDELKAKYPSIFNRVQISNGKQLPTNEKITKWSAKYFNGTNILGRGINYVLRDDKTNQYFNTSANSQLLPTPLRDTGAITSTQVFQRRGQDVYFLRDNQAVKNEFVQDGNGNWYYFGADGKMTKGAQTINKKDYYFFDNGIQLRNALRRANNGYTYYYGLDGAMVKNAFVDFDDKRKQ
modifications: T5 C-terminal truncation of GTF4336
B4: GTF0974NT: N terminal-only truncated GTF0974 from Streptococcus salivarius 57.I, SEQ ID NO: 110, strain SG1290 (protein)
chain: INGKQYYVNSDGSVRKNFVFEQDGKSYYFDAETGALATKSQDEFSTEPIKATVDFSSGNQLYKNDDKSLDQLDTFITADAWYRPKSILKDGKTWTASTEADKRPLLMVWWPDKSTQVNYLNYMQNQGLGAGSFSTNSSQESLDQAAKAVQTKIEERIAREGNTNWLRTSIDQFIKTQPGWNSSTENSSYDHLQGGQLLFNNSKGDTGNRTSHANSDYRLLNRTPTNQTGTRKYFKDNSIGGLEFLLANDIDNSNPAVQAEQLNWLHFMMNIGSIMANDPTANFDGLRVDALDNVDADLLQIASDYFKAAYGVDKSEANAIKHLSYLEAWSANDPYYNKDTKGAQLPIDNALRNALTNLLMRDKNTRMQLGDMTAFINSSLNPRGANDKNGERMANYIFTRAHDTEAQTIIQRIIRDRINPNLFGYNFTRDEIKKAFEIYNEDIDKAHKTYASYNLPSVYALMLTNKDSVTRVYYGDLYREDGHYMAKKTPYFDAIDTLLRARIKYVAGGQDMEVKKVGNDGLLTSVRYGKGANNRTDLGTSETRTQGMGVIMTNNYDFRLGSNETVTMNMGRAHRNQLYRPLLLTTKDGIATYLNDSDVPKKLLKRTDWNGNLTFNANDVFGVENVQVSGYLGVWVPYGAKANQDARTQPSNRANSDGQVYKSSAALDSQVMYEAFSNFQAFADDQPELYMNRVLAKNTDLLKAWGITSVGLPPQYVSSKDGTFLDSTIDNGYAFDDRYDMALSQNNKYGSLEDLLNVLRALHKDGIQAIADWVPDQIYNLPGKEVVNATRVNGYGNHQVGYQIIDQAYVANTRTDGTDYQGKYGGAFLDELKAKYPSIFNRVQISNGKQLPTNEKITKWSAKYFNGTNILGRGINYVLRDDKTNQYFNTSANSQLLPTPLRDTGAITSTQVFQRRGQDVYFLRDNQAVKNEFVQDGNGNWYYFGGDGKMTKGAQNINNKDYYFFDNGIQLRNALRRASNGYTYYYGLDGAMVKNAFVDFDDKHKQVRAFTTQGTMVVGNLHWSGHHFYFDRETGIQAKDRVVRTDDGKLHYYVAETGDMGRNVFATDSSTGKRYYFDADGNTVTGSRVIDGKTYYFNQDGSVGTAYSNRADSIIFENGKARYITPAGEIGRSIFVYNPETKAWNYFDKEGNRVTGRQYIDGHLYYFKEDGSQAKGEIIEENGVKYYYEPESGILASGRYLQVGDDQWMYFKQDGSLAIGQVRADHGYLKYFDKNGIQVKGKTVVEDGKTYYYDAHSGALVTSSFAEIAPNQWSYFNTDGQALKGKWTINGKEYYFDENGIQYKGKAIKVGSRYKYYDENDGQPVTNRFAQIEPNVWAYFGADGYAVTGEQVINGQHLYFDQSGRQVKGAYVTVNGQRRYYDANTGEYVPGR
modifications: Streptococcus salivarius 57.I

Assay: GTF activity of strains (PAHBAH assay)
Type: biochemical
Settings: enzyme expressed in B. subtilis host
Protocol: GTF activity of the strains was analyzed by PAHBAH assay in three separate experiments. Due to minor variations between the expeirments, Table 2 lists the activity of the truncated enzymes in the B. subtilis host along with the experiment in which the activity was measured. Most of the T1, T2, and T6 truncations decreased the activity of the enzymes, whereas the T4 and T5 C-terminal truncations retained similar activity relative to the respective N terminal-only truncations (NT). […] To identify specific amino acid residues within the catalytic domain that may be involved in producing the soluble α-glucan fiber, we analyzed the crystal structures (PDB Identifiers: 3AIB, 3AIC, and 3HZ3) of the catalytic domains of three glucosyltransferases to identify residues within 8 Angstroms of the bound ligand. 57 residues met that criterion. A motif was generated based on the corresponding 57 amino acids in GTF0459 and each of the identified homologs. The motif was then used to generate a consensus sequence to capture the variability in the catalytic domains of GTF0459 and the identified homologs. The consensus sequence is provided as SEQ ID NO: 153.

Molecule | GTF activity of strains: Acitivity (Experiment Number 2) [U/mL] | GTF activity of strains: Acitivity (Experiment Number 3) [U/mL] | GTF activity of strains: Acitivity (Experiment Number 1) [U/mL]
B1 | 46.4 |  | 
B2 | 43.5 | 37.7 | 
B3 | 43.6 |  | 
B4 | 53 | 36.4 | 43.7
